Article PMC3578133 (Cancer research, 2012)
Blank lines part the entries; values can stand above or below the binder they belong to.

How the values were obtained:
[1] = molecular target: T1, recombinant full length flag-tagged N-CoR (amino-acid 1-2440) (human, UniProt O75376 1-2440); experiment: co-IP
[2] = molecular target: T1, recombinant full length flag-tagged …; experiment: SPR

T1 sequence (O75376 whole entry): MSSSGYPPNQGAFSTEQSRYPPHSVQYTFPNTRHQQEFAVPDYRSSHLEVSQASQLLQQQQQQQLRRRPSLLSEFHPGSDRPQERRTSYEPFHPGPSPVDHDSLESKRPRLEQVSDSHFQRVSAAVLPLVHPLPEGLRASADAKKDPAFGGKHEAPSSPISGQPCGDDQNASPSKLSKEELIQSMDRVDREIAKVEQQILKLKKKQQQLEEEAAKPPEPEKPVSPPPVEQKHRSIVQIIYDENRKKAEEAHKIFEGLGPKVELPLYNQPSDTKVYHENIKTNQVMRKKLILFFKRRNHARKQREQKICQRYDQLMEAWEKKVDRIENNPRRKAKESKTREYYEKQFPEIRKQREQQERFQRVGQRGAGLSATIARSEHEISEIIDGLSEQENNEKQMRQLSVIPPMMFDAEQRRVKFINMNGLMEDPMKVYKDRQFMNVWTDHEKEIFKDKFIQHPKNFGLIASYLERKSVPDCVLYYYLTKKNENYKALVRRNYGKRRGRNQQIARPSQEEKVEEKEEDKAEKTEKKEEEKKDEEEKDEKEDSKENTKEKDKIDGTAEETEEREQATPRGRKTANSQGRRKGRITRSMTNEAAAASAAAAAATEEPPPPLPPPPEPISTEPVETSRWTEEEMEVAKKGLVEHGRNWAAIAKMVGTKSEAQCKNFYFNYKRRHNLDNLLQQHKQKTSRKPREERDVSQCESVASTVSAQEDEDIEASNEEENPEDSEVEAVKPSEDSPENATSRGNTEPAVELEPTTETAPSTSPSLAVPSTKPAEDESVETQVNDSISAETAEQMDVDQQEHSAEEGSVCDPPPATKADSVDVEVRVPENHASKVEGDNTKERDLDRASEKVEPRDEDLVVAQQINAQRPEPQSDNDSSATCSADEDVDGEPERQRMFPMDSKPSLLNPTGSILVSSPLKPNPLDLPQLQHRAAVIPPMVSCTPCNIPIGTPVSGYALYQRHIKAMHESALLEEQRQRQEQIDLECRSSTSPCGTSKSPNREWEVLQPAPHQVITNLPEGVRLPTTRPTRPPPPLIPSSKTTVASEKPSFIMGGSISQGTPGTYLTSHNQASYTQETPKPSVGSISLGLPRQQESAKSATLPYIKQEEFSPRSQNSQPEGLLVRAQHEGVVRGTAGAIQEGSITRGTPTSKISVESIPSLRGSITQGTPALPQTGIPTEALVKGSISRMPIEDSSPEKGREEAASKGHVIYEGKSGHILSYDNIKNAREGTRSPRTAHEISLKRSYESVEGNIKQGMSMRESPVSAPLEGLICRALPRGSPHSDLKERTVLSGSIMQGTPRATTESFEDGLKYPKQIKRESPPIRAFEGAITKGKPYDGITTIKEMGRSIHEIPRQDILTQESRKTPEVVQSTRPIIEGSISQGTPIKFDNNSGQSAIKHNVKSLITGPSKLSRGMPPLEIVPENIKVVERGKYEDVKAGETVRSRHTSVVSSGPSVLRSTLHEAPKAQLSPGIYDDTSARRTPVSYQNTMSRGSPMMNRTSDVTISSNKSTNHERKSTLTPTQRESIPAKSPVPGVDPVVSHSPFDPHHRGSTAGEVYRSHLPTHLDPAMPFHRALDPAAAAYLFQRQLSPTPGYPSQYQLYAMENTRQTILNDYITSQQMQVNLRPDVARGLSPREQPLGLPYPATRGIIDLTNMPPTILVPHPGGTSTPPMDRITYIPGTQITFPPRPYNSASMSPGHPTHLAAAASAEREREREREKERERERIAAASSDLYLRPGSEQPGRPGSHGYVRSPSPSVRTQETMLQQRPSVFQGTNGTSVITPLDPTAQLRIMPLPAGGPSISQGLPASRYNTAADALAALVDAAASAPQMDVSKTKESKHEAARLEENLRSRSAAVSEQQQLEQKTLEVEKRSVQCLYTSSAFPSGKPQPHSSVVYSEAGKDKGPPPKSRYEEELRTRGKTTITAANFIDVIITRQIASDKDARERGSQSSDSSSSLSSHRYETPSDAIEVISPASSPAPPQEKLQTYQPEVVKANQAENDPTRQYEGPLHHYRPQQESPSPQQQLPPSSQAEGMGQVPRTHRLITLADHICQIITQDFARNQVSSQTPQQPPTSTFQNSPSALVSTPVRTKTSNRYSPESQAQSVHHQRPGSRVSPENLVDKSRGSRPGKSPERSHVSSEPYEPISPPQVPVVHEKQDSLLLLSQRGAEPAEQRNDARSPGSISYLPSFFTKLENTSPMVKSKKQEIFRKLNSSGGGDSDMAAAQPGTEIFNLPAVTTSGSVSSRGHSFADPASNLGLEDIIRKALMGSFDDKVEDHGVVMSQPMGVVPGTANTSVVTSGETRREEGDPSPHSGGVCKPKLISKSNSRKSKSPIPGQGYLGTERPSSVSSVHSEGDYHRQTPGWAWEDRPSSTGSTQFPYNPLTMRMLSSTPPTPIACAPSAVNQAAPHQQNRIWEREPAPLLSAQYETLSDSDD

- binding result [1]: binds
B1: recombinant GST-tagged HDAC4 (amino acid 627-1085) (domain or fragment, human, UniProt P56524 627-1084, looked up)
chain: LSRAQSSPASATFPVSVQEPPTKPRFTTGLVYDTLMLKHQCTCGSSSSHPEHAGRIQSIWSRLQETGLRGKCECIRGRKATLEELQTVHSEAHTLLYGTNPLNRQKLDSKKLLGSLASVFVRLPCGGVGVDSDTIWNEVHSAGAARLAVGCVVELVFKVATGELKNGFAVVRPPGHHAEESTPMGFCYFNSVAVAAKLLQQRLSVSKILIVDWDVHHGNGTQQAFYSDPSVLYMSLHRYDDGNFFPGSGAPDEVGTGPGVGFNVNMAFTGGLDPPMGDAEYLAAFRTVVMPIASEFAPDVVLVSSGFDAVEGHPTPLGGYNLSARCFGYLTKQLMGLAGGRIVLALEGGHDLTAICDASEACVSALLGNELDPLPEKVLQQRPNANAVRSMEKVMEIHSKYWRCLQRTTSTAGRSLIEAQTCENEEAETVTAMASLSVGVKPAEKRPDEEPMEEEPPL

- Kd [2]: 1 nM
B2: human full length N-terminal GST-tagged HDAC4 (natural protein, UniProt P56524 1-1084, looked up)
chain: MSSQSHPDGLSGRDQPVELLNPARVNHMPSTVDVATALPLQVAPSAVPMDLRLDHQFSLPVAEPALREQQLQQELLALKQKQQIQRQILIAEFQRQHEQLSRQHEAQLHEHIKQQQEMLAMKHQQELLEHQRKLERHRQEQELEKQHREQKLQQLKNKEKGKESAVASTEVKMKLQEFVLNKKKALAHRNLNHCISSDPRYWYGKTQHSSLDQSSPPQSGVSTSYNHPVLGMYDAKDDFPLRKTASEPNLKLRSRLKQKVAERRSSPLLRRKDGPVVTALKKRPLDVTDSACSSAPGSGPSSPNNSSGSVSAENGIAPAVPSIPAETSLAHRLVAREGSAAPLPLYTSPSLPNITLGLPATGPSAGTAGQQDAERLTLPALQQRLSLFPGTHLTPYLSTSPLERDGGAAHSPLLQHMVLLEQPPAQAPLVTGLGALPLHAQSLVGADRVSPSIHKLRQHRPLGRTQSAPLPQNAQALQHLVIQQQHQQFLEKHKQQFQQQQLQMNKIIPKPSEPARQPESHPEETEEELREHQALLDEPYLDRLPGQKEAHAQAGVQVKQEPIESDEEEAEPPREVEPGQRQPSEQELLFRQQALLLEQQRIHQLRNYQASMEAAGIPVSFGGHRPLSRAQSSPASATFPVSVQEPPTKPRFTTGLVYDTLMLKHQCTCGSSSSHPEHAGRIQSIWSRLQETGLRGKCECIRGRKATLEELQTVHSEAHTLLYGTNPLNRQKLDSKKLLGSLASVFVRLPCGGVGVDSDTIWNEVHSAGAARLAVGCVVELVFKVATGELKNGFAVVRPPGHHAEESTPMGFCYFNSVAVAAKLLQQRLSVSKILIVDWDVHHGNGTQQAFYSDPSVLYMSLHRYDDGNFFPGSGAPDEVGTGPGVGFNVNMAFTGGLDPPMGDAEYLAAFRTVVMPIASEFAPDVVLVSSGFDAVEGHPTPLGGYNLSARCFGYLTKQLMGLAGGRIVLALEGGHDLTAICDASEACVSALLGNELDPLPEKVLQQRPNANAVRSMEKVMEIHSKYWRCLQRTTSTAGRSLIEAQTCENEEAETVTAMASLSVGVKPAEKRPDEEPMEEEPPL
